In PMC10204903 (Cell, 2022):

B1: mAb 5.24.1C11 (antibody, V domains shown)
VH: QVQLVQSGAEVKKPGASVKVSCRTSGYTFSSYNIHWVRQAPGQGLEWMGVINPYGRSTTLYARRFRDRVTMTRDTSTSTVYMELSSLRSEDTAVYFCGRLYSGAPYGLDVWGQGSTVTVSS
VL: DIVMTQSPLSLPVTPGEPASISCRSSQSLLHSNGYNYVDWYLQKPGQSPQLLIYLGSSRASGVPDRFSGSGSGTDFTLKISRVETEDVGIYYCMQGLQTPLTFGGGTKVEIK
B2: mAb 9.20.1C3 (antibody, V domains shown)
VH: QVQLVQSGAEVKKPGSSVKVACKVSGGTFSSYTISWVRQAPGQGLEWMGGIIPSFGVGHYSQKFRDRVTLTADKSTTTAFLELSSVRSEDTALYYCAILGTFNWKSGGNYFGPWGQGTLVTVSS
VL: DIVLTQSPDSLAASLGERATISCKSSHSVLYSSNNKDFFAWYQQKPGQPPKLLISWASTRESGVPVRFNGGGSGTHFTLTISSLQAEDVAVYYCQQYFSSPITFGQGTRLEIK

Tests used:
Assay in all cases: ELISA
BDBV GP ectodomain = BDBV GP ectodomain (Bundibugyo virus; strain of the bought …, UniProt B8XCN0)
[1] = target: EBOV soluble glycoprotein (sGP) (Ebola virus (EBOV), UniProt P60170)
SUDV GP ectodomain = SUDV GP ectodomain (Sudan virus (SUDV), UniProt Q7T9D9)

Row | Binder | binding result (BDBV GP ectodomain) | binding result [1] | binding result (SUDV GP ectodomain)
1 | B1 | binds | no binding | binds
2 | B2 | binds | no binding | binds
